Among the data in publication PMC7691336 are Kd values, retold here.

Values joined by “and” are separate entries in the source; they are usually repeats but may differ in a detail not shown here. Equal values may be shown once.

Experiment [1] concerns the target cardiac ryanodine receptor (RyR2) V3599K, knock-in mouse heart (mouse (endogenous in cardiac homogenates)) (UniProt E9Q401). Put plainly: cross-linking; CaM-SANPAH at rising concentrations (to 1024 nM; also 3000) mixed with mouse cardiac homogenates (1 mg/mL) in 150 mmol/L KCl, 10 umol/L CaCl2, 20 mmol/L MES pH 6.8; 10 min binding, UV cross-linking, anti-CaM blot of the 550 kDa band; binding as ratio to the maximum; one Kd for each heart; hearts of sham-operated mice.

Experiment [2] deals with cardiac ryanodine receptor (RyR2), wild type, mouse heart (mouse (endogenous in cardiac homogenates)) (UniProt E9Q401). Described as above.
In experiment [3] the target is cardiac ryanodine receptor (RyR2) V3599K, knock-in mouse heart (mouse (endogenous in cardiac homogenates)) (UniProt E9Q401). Put plainly: cross-linking; CaM-SANPAH at rising concentrations (to 1024 nM; also 3000) mixed with mouse cardiac homogenates (1 mg/mL) in 150 mmol/L KCl, 10 umol/L CaCl2, 20 mmol/L MES pH 6.8; 10 min binding, UV cross-linking, anti-CaM blot of the 550 kDa band; binding as ratio to the maximum; one Kd for each heart; hearts 2 weeks after transverse aortic constriction (TAC 2W).

Experiment [4] concerns the target cardiac ryanodine receptor (RyR2), wild type, mouse heart (mouse (endogenous in cardiac homogenates)) (UniProt E9Q401). Described as above.

For orientation: Kd means a measure of binding affinity in units of concentration. Take “CaM-SANPAH conjugate (recombinant calmodulin) (from UniProt P0DP23 1-149) (natural protein)”: the Kd was 47.4 nM and 51.6 nM (2×) and 74.2 nM in experiment [1]; 61.4 nM and 66.9 nM and 54.7 nM (2×) in experiment [2]; 55.9 nM and 44.2 nM and 82.9 nM in experiment [3]; 118 nM and 151 nM and 139 nM in experiment [4].
